Experimental data published in publication PMC9769727, “Glucose-6-Phosphate Dehydrogenase, ZwfA, a Dual Cofactor-Specific Isozyme Is Predominantly Involved in the Glucose Metabolism of Pseudomonas bharatica CSV86^T” (Microbiology Spectrum, 2022).
Each block holds one molecule with its values, some of them ahead of it.

What was measured:
[1] = target: Glucose-6-phosphate dehydrogenase ZwfA from Pseudomonas bharatica CSV86T (Pseudomonas bharatica CSV86T); assay: SEC; ENrich SEC 650 column (CV 24 mL, Bio-Rad) in Buffer A (Tris-Cl 50 mM, pH 7.5), 4°C; native molecular weight from a semilog plot of Ve/V0 against standard proteins, compared with the subunit weight by SDS-PAGE
[2] = target: Glucose-6-phosphate dehydrogenase ZwfC from Pseudomonas bharatica CSV86T (Pseudomonas bharatica CSV86T); assay: SEC; Superdex 200 Increase 10/300 GL column (CV 24 mL, GE Healthcare) in Buffer A (Tris-Cl 50 mM, pH 7.5), 4°C; native molecular weight from a semilog plot of Ve/V0 against standard proteins, compared with the subunit weight by SDS-PAGE
purified protein [3] = substrate: NC(=O)c1ccc[n+]([C@@H]2O[C@H](COP(=O)(O)OP(=O)(O)OC[C@H]3O[C@@H](n4cnc5c(N)ncnc54)[C@H](O)[C@@H]3O)[C@@H](O)[C@H]2O)c1; assay: purified protein; format: biochemical, Pseudomonas bharatica; conditions: 5 mM G6P fixed, Tris-Cl 50 mM, pH 8.25, hyperbolic
purified protein [4] = substrate: NC(=O)c1ccc[n+]([C@@H]2O[C@H](COP(=O)(O)OP(=O)(O)OC[C@H]3O[C@@H](n4cnc5c(N)ncnc54)[C@H](OP(=O)(O)O)[C@@H]3O)[C@@H](O)[C@H]2O)c1; assay: purified protein; format: biochemical, Pseudomonas bharatica; conditions: 5 mM G6P fixed, Tris-Cl 50 mM, pH 8.25, hyperbolic

stoichiometry N [1]: 4
Molecule: Glucose-6-phosphate dehydrogenase ZwfA from Pseudomonas bharatica CSV86T (enzyme)

stoichiometry N [2]: 4
Molecule: Glucose-6-phosphate dehydrogenase ZwfC from Pseudomonas bharatica CSV86T (enzyme)

B1: ZwfA (Pseudomonas bharatica CSV86) (protein)
chain: MSSISVEPCTFALFGALGDLALRKLFPALYQLDRAGLLHERTRLLALAREPGSVQEHLASIEAHLHEFVASDTLDTTVLQRFLGRLNYLHMDFLDAQAYPALAAQVTPEAPLIAYFATPAAVYGGICENLAKVGLAERTRVVLEKPIGHDLESSRRVNDAVAQFFPENRIYRIDHYLGKETVQNLIALRFANSLFETQWNQTSISHVEISVAEKVGIEGRWGYFDKAGQLRDMIQNHLLQLLCLIAMDPPSDLSADSIRDEKVKVLKALAPITGEGLGTRVVRGQYIAGHSDGRALPGYLDEENANTHSDTETFVALRADIRNWRWAGVPFYLRTGKRMPQKLSQIVIHFKEPQHYIFAAEQRLQIGNKLIIRLQPDEGISLRVMTKEQGLDKGMQLRSSPLQLNFSDGSFRSARIPDAYERLLLEVMRGNQNLFVRKDEIEYAWKWCDQLIAGWKQSGEAPRPYAAGTWGPVAAVALITRDGRSWYGDI
notes: full length, 490 aa (1473 nt), pET28a N-terminal 6xHis tag, E. coli BL21(DE3), Ni-NTA; subunit ~56 kDa, homotetramer ~217 kDa; part of zwfA-pgl-eda operon; Arg49, Leu17
Km (purified protein [3]): 366 ± 70 µM
Vmax (purified protein [3]): 329 ± 74 µmol/min/mg
kcat (purified protein [3]): 306 ± 69 s⁻¹
kcat/Km (purified protein [3]): 860000 ± 150000 M⁻¹ s⁻¹
Km (purified protein [4]): 110.5 ± 20 µM
Vmax (purified protein [4]): 201 ± 28 µmol/min/mg
kcat (purified protein [4]): 187 ± 26 s⁻¹
kcat/Km (purified protein [4]): 1.7e+06 ± 300000 M⁻¹ s⁻¹
